{"source": "paper PMC8464030", "binders": {"B1": {"name": "R1 / 12-mer 5'-ppp dsRNA (dsRNA)", "RNA 1": "GGCGCGCGCGCC", "RNA 2": "GGCGCGCGCGCC", "modifications": "5'-triphosphate on both strands"}, "B2": {"name": "GC30 (30-bp dsRNA) (dsRNA)", "RNA 1": "GGCGCGCGCGCGCGCGCGCGCGCGCGCGCGCC", "RNA 2": "B2 RNA 1", "modifications": "5'-triphosphate on both strands"}, "B3": {"name": "Hairpin 30 (structured_RNA)", "RNA": "GGACGUACGUACGUGCACGUACGUACGUGCUUCGGCACGUACGUACGUGCACGUACGUACGUCC", "modifications": "5'-triphosphate"}}, "key": {"DRH-1 CTD": {"biological_target": "T1, DRH-1 CTD (Caenorhabditis elegans, UniProt G5EDI8 877-1006)", "T1 sequence": "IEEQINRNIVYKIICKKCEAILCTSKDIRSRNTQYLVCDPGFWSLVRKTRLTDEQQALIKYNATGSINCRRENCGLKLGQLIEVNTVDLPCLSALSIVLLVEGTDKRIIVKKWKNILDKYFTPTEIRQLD", "assay": "limited proteolysis"}, "RIG-I CTD": {"biological_target": "T2, RIG-I CTD (human, UniProt O95786 802-925)", "T2 sequence": "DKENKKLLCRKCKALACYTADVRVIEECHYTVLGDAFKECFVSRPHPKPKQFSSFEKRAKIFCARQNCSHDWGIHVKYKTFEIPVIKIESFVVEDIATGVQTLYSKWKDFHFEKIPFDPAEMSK", "assay": "limited proteolysis"}, "DRH-3 CTD": {"biological_target": "T3, DRH-3 CTD (Caenorhabditis elegans, UniProt Q93413 940-1108)", "T3 sequence": "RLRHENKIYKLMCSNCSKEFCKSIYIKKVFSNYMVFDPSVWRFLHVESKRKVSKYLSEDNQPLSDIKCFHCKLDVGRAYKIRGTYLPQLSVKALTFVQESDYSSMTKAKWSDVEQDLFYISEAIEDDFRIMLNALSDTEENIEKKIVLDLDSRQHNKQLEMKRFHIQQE", "assay": "crystal structure"}, "DRH-3 full length [1]": {"biological_target": "T4, DRH-3 full length (Caenorhabditis elegans, UniProt Q93413 1-1119)", "T4 sequence": "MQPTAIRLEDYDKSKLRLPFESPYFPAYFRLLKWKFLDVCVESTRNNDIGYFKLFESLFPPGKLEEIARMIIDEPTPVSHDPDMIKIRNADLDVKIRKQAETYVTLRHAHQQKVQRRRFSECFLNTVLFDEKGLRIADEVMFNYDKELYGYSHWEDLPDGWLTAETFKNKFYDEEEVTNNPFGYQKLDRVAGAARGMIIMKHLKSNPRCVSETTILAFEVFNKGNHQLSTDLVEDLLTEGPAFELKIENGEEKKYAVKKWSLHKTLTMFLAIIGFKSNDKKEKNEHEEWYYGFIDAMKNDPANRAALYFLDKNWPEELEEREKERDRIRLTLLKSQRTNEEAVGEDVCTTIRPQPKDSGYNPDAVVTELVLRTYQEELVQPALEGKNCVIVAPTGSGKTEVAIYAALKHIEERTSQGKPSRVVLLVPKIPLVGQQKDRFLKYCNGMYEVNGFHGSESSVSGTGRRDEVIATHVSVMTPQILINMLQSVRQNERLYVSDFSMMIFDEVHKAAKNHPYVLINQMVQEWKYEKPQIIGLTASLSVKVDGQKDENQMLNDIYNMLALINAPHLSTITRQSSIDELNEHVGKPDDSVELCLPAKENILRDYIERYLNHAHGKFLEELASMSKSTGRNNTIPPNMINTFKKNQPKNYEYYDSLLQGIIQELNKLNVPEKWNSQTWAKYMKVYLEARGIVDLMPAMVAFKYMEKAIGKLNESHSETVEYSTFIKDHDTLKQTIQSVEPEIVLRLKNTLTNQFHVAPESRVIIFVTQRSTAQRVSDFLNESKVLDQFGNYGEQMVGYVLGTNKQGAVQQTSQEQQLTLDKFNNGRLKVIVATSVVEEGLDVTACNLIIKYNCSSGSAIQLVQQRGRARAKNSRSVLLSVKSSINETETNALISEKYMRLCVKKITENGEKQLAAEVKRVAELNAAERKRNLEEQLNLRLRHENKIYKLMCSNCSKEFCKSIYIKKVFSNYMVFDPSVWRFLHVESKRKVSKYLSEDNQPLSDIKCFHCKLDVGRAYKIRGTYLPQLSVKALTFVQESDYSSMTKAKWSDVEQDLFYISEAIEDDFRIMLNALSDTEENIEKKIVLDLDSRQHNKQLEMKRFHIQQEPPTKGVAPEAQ", "assay": "size-exclusion chromatography"}, "DRH-3 full length [2]": {"biological_target": "T4, DRH-3 full length", "assay": "size-exclusion chromatography", "remark": "listed apart in the source"}, "DRH-3 full length [3]": {"biological_target": "T4, DRH-3 full length", "assay": "HDX-MS"}}, "data": [{"binder": "B1", "values": [{"measurement": "binding result", "setting": "DRH-1 CTD", "value": "binds"}, {"measurement": "binding result", "setting": "RIG-I CTD", "value": "binds"}, {"measurement": "binding result", "setting": "DRH-3 CTD", "value": "binds"}]}, {"binder": "B2", "values": [{"measurement": "binding result", "setting": "DRH-3 full length [1]", "value": "binds"}]}, {"binder": "B3", "values": [{"measurement": "binding result", "setting": "DRH-3 full length [2]", "value": "binds"}]}, {"binder": "GGACGUACGUUUCGACGUACGUCC (structured_RNA, 5'-triphosphate)", "note": "[3p10L (SLR10)]", "values": [{"measurement": "binding result", "setting": "DRH-3 full length [3]", "value": "binds"}]}, {"binder": "GGCCGCCC (ssRNA, 5'-triphosphate)", "note": "[8-nt ssRNA]", "values": [{"measurement": "binding result", "setting": "DRH-3 CTD", "value": "binds"}]}]}
